Assay results taken from patent US20240360228A1 (BIOLEGEND, published 2024).

Assays:
[1] = molecular target: human chemokine (C-C motif) receptor 8 (CCR8) (human) (UniProt P51685); assay: flow cytometry, human PBMC, CD3+ gate; % cells stained by PE-L263G8 after isotype control block
[2] = molecular target: T1, human chemokine (C-C motif) receptor 8 (CCR8) (human, UniProt P51685 1-355); assay: flow cytometry blocking, human PBMC, CD3+ gate; % cells stained by competitor PE-AB6 after block
T1 construct: also called hCCR8
T1 sequence (P51685 whole entry): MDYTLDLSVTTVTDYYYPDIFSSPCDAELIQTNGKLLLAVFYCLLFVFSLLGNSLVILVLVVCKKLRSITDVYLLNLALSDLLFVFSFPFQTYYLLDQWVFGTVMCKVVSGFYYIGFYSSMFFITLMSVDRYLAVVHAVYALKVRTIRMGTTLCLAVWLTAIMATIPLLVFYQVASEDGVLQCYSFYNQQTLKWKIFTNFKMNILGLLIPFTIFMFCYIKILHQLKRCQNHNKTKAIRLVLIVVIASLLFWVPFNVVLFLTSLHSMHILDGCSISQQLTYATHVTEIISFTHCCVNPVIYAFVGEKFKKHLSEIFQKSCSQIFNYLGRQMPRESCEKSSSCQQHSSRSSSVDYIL
Description: (§1) For blocking studies, 100 μL of the cell suspension were incubated with 10 μg purified isotype control, AB1, AB2, AB3, AB4, AB5, AB8, AB9, AB10, AB11, AB12, AB13, AB14, AB15, and Commercial ABI antibodies, or isotype control, as blocking agents.
(§2) After incubation with the blocking agent, the cells were incubated with 0.25 μg of the indicated PE-conjugated antibody plus anti-human CD4 APC or anti-human CD3 for another 15 minutes in the dark and then washed 2 times with Cell Staining Buffer, and acquired in a FACSCanto II flow cytometer (BD Biosciences); the data was analyzed using FCS Express (De Novo Software); MFI correspond to the CCR8+ CD4+ lymphocytes or CCR8+ CD3+ lymphocytes.

[3] = molecular target: T1, human chemokine (C-C motif) receptor 8 …; assay: flow cytometry blocking, human PBMC, CD3+ gate; % cells stained by competitor PE-L263G8 after block
Description: as §1, §2

[4] = molecular target: T1, human chemokine (C-C motif) receptor 8 …; assay: flow cytometry blocking, human PBMC, CD3+ gate; competitor PE-AB15
Description: as §1, §2
(§3) Percentage original MFI was calculated by dividing the MFI of samples blocked with AB1, AB2, AB3, AB4, AB5, AB6, AB7, AB8, AB9, AB10, AB11, AB12, AB13, AB14, AB15, and Commercial ABI antibodies, by the MFI of samples blocked with the corresponding isotype control. This value was subtracted from 100 to get a blocking percentage. The formula is shown below: […]

[5] = molecular target: T1, human chemokine (C-C motif) receptor 8 …; assay: flow cytometry blocking, human PBMC, CD3+ gate; competitor PE-L263G8
[6] = molecular target: T1, human chemokine (C-C motif) receptor 8 …; assay: flow cytometry blocking, human PBMC, CD3+ gate; competitor PE-AB7
Description: as §1, §2, §3

[7] = molecular target: T1, human chemokine (C-C motif) receptor 8 …; assay: flow cytometry blocking, human PBMC, CD3+ gate; competitor PE-AB6
Description: as §1, §2, §3

[8] = molecular target: T1, human chemokine (C-C motif) receptor 8 …; assay: flow cytometry blocking, human PBMC, CD3+ gate; % cells stained by competitor PE-AB11 after block
Description: as §1, §2

[9] = molecular target: T1, human chemokine (C-C motif) receptor 8 …; assay: flow cytometry blocking, human PBMC, CD3+ gate; % cells stained by competitor PE-AB15 after block
Description: as §1, §2

[10] = molecular target: T1, human chemokine (C-C motif) receptor 8 …; assay: flow cytometry blocking, human PBMC, CD3+ gate; % cells stained by competitor PE-AB8 after block
Description: as §1, §2

[11] = molecular target: T1, human chemokine (C-C motif) receptor 8 …; assay: flow cytometry blocking, human PBMC, CD3+ gate; % cells stained by competitor PE-AB12 after block
Description: as §1, §2

[12] = molecular target: T1, human chemokine (C-C motif) receptor 8 …; assay: flow cytometry blocking, human PBMC, CD3+ gate; % cells stained by competitor PE-AB14 after block
Description: as §1, §2

[13] = molecular target: T1, human chemokine (C-C motif) receptor 8 …; assay: flow cytometry blocking, human PBMC, CD3+ gate; competitor PE-AB10
Description: as §1, §2, §3

[14] = molecular target: T1, human chemokine (C-C motif) receptor 8 …; assay: flow cytometry blocking, human PBMC, CD3+ gate; competitor PE-AB12
Description: as §1, §2, §3

[15] = molecular target: T1, human chemokine (C-C motif) receptor 8 …; assay: flow cytometry blocking, human PBMC, CD3+ gate; % cells stained by competitor PE-AB7 after block
Description: as §1, §2

[16] = molecular target: T1, human chemokine (C-C motif) receptor 8 …; assay: flow cytometry blocking, human PBMC, CD3+ gate; competitor PE-AB8
Description: as §1, §2, §3

[17] = molecular target: T1, human chemokine (C-C motif) receptor 8 …; assay: flow cytometry blocking, human PBMC, CD3+ gate; competitor PE-AB13
Description: as §1, §2, §3

[18] = molecular target: T1, human chemokine (C-C motif) receptor 8 …; assay: flow cytometry blocking, human PBMC, CD3+ gate; competitor PE-AB5
Description: as §1, §2, §3

[19] = molecular target: T1, human chemokine (C-C motif) receptor 8 …; assay: flow cytometry blocking, human PBMC, CD3+ gate; % cells stained by competitor PE-AB5 after block
Description: as §1, §2

[20] = molecular target: T1, human chemokine (C-C motif) receptor 8 …; assay: flow cytometry blocking, human PBMC, CD3+ gate; competitor PE-AB11
Description: as §1, §2, §3

[21] = molecular target: T1, human chemokine (C-C motif) receptor 8 …; assay: flow cytometry blocking, human PBMC, CD3+ gate; competitor PE-433H
[22] = molecular target: T1, human chemokine (C-C motif) receptor 8 …; assay: flow cytometry blocking, human PBMC, CD3+ gate; % cells stained by competitor PE-AB10 after block
Description: as §1, §2

[23] = molecular target: T1, human chemokine (C-C motif) receptor 8 …; assay: flow cytometry blocking, human PBMC, CD3+ gate; % cells stained by competitor PE-433H after block
Description: as §1, §2

[24] = molecular target: T1, human chemokine (C-C motif) receptor 8 …; assay: flow cytometry blocking, human PBMC, CD3+ gate; % cells stained by competitor PE-AB13 after block
Description: as §1, §2

[25] = molecular target: T1, human chemokine (C-C motif) receptor 8 …; assay: flow cytometry blocking, human PBMC, CD3+ gate; competitor PE-AB14
Description: as §1, §2, §3

[26] = molecular target: human chemokine (C-C motif) receptor 8 (CCR8) (human) (UniProt P51685); assay: flow cytometry, human PBMC, CD3+ gate; % cells stained by PE-433H after isotype control block

Sequence of human chemokine (C-C motif) receptor 8 (CCR8) (human) (P51685 whole entry): as above

| % Positive cells [2] | % Positive cells [3] | % Blocking [4] | % Blocking [5] | % Blocking [6] | % Blocking [7] | % Positive cells [8] | % Positive cells [9] | % Positive cells [10] | % Positive cells [11] | % Positive cells [12] | % Blocking [13] | % Blocking [14] | % Positive cells [15] | % Blocking [16] | % Blocking [17] | % Blocking [18] | % Positive cells [19] | % Blocking [20] | % Blocking [21] | Molecule | other results |
| --- | --- | --- | --- | --- | --- | --- | --- | --- | --- | --- | --- | --- | --- | --- | --- | --- | --- | --- | --- | --- | --- |
|  |  |  |  |  |  |  |  |  |  |  |  |  |  |  |  |  |  |  |  | Commercial L263G8 anti-human CCR8 antibody | % Positive cells [1]: 5.87% |
| 8.04% | 0.43% | 97.6% | 92.7% | 2.53% | 2.9% | 0.09% | 0.16% | 8.8% | 0.17% | 0.12% | 96.5% | 97.7% | 8.87% | -4.02% | 94.1% | -2.41% | 8.49% | 98.7% | 47.2% | anti-CCR8 monoclonal antibody AB11 (antibody, V domains shown, Hybridoma monoclonal; also called antibody 11; clone 11) VH: EVQLVESGGGLVQPKGSLKLSCAASGFAFNTYAMNWVRQAPGKGLEWIARLRSKSNFYATYYADSVKDRFTISRDDSQSMLYLQMNNLKTEDTAVYYCVRGRELGPSYAMDYWGQGTSVTVSS VL: DIVMTQAAPSVPVTPGESVSISCRSSKSLLHSNGNTYLYWFLQRPGQSPQLLIYRMSNLASGVPDRFSGSGSGTAFTLRISRVEAEDVGVYYCMQHLEYPYTFGGGTKLEIK | % Positive cells [22]: 0.21%; % Positive cells [23]: 3.73%; % Positive cells [24]: 0.39%; % Blocking [25]: 98.3% |
| 8.62% | 4.68% | 46.5% | 20.3% | 30.3% | -4.11% | 6.96% | 3.52% | 6.32% | 6% | 4.32% | -2.65% | 20.3% | 6.34% | 25.3% | 34.7% | -1.21% | 8.39% | 0.85% | 6.93% | anti-CCR8 monoclonal antibody AB13 (antibody, V domains shown, Hybridoma monoclonal; also called antibody 13; clone 13) VH: EVQLVETGGGLVQPKGSLKLSCAASGFTFNAYAMNWVRQAPGKGLEWVARIRTKSNNYATYYADSVKDRFTISRDDSQTMLYLQMNNLKTEDTAMYYCVRDRATVTTGRAMDYWGQGTSVTVSS VL: DIVMTQAAPSLPVTPGESVSISCRSSKSLLHSNGNTYLYWFLQRAGQSPQLLIYRMSNLASGVPDRFSGSGSGTAFTLRISRVEAEDVGVYYCMQHLEYPFTFGSGTKLEIK | % Positive cells [22]: 6.19%; % Positive cells [23]: 6.58%; % Positive cells [24]: 4.34%; % Blocking [25]: 39.4% |
|  |  |  |  |  |  |  |  |  |  |  |  |  |  |  |  |  |  |  |  | Commercial 433H anti-human CCR8 antibody (antibody, from another filing, V domains shown) VH: EVQLVETGGGLVQPKGSLRLSCAASGFPFNTFAMNWVRQAPGKGLEWLARIRSKSNNYATYYADSVKDRFTISRDDSRRMLYLLMNNVKFEDTAIYYCVRGKENNYGYAMDYWGQGTSVTVSS VL: DIVMTQAAPSVPVTPGESVSISCRSSQSLLHSNGNTYLYWFLQRPGQSPQLLIYRMSNLASGVPDRFSGSGSGTAFTLRISRVEAEDVGVYYCMQHLEYPFTFGIGTKLELKR | % Positive cells [26]: 7.07% |
